Assay [1] addresses T1, human CD180 (human, UniProt Q99467 24-661).
T1 construct: whole, on cells; Native CD180 on primary human B cells; also called RP105; Bgp95
T1 sequence: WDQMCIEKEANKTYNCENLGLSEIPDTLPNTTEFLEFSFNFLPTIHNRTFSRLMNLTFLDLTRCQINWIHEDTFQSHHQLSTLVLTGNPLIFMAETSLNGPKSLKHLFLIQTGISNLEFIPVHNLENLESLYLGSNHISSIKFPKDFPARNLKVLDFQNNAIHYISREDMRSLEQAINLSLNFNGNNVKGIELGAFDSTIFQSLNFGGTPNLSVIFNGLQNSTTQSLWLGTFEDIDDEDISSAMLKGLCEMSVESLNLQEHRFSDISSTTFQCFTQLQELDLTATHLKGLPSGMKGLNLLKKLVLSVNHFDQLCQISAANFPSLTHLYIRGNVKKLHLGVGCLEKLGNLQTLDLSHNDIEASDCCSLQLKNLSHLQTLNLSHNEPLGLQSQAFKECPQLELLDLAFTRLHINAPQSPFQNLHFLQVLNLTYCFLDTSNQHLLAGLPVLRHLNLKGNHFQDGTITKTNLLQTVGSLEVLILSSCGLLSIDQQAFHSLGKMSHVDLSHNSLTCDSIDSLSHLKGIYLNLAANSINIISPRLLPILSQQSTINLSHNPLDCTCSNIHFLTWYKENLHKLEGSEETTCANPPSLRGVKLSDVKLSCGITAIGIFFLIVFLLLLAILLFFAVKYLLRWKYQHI
The experiment in a line: flow cytometry on human B cells (figure legend).

Assay [2] concerns the target T1, human CD180. Put plainly: flow cytometry competition on human B cells; 2.5 ug unlabelled G28-8 first, then 10 ug G28-8-PE. (In general: A flow cytometer gives signals particle by particle.)

B1: G28-8LH-HBcAgY132A-His (scFv)
chain: DIQMTQSPASLSASVGETVTITCRASEKIYSYLAWYQQKQGKSPQLLVYNAKTLAEGVPSRFSVSGSGTQFSLRINSLQPEDFGTYYCQHHFGSPRTFGGGTKLEIKDLGGGGSGGGGSGGGGSGGGGSTGEVQLQQSGPELVKPGASMKISCKASGYSFTGYTMNWVKQSHGKTLEWIGLINPYNGVTSYNQKFKDKATLTVDKSSSTAYMELLSLTSEDSAIYYCARDYNYDYFDYWGQGTTLTVSSGGGGSGGGGSGGGGSGGGGSMDIDPYKEFGASVELLSFLPSDFFPSIRDLLDTASALYREALESPEHCSPHHTALRQAILCWGELMNLATWVGSNLEDPASRELVVSYVNVNMGLKIRQLLWFHISCLTFGRETVLEYLVSFGVWIRTPPAARPPNAPILSTLPETTVVHHHHHH
notes: Anti-human CD180 scFv (VL-VH) fused to HBcAg(1-149) Y132A and a 6xHis tag, made in CHO cells and purified on nickel resin; the tested protein carried it, since it was detected with anti-6xHis; also called aCD180-HBVAg; HBcAg-CD180
Turning to B1, the binding result with human CD180 [1] is on record as “binds”.

B2: G28-8 anti-human CD180 monoclonal antibody (antibody, V domains shown)
VH: EVQLQQSGPELVKPGASMKISCKASGYSFTGYTMNWVKQSHGKTLEWIGLINPYNGVTSYNQKFKDKATLTVDKSSSTAYMELLSLTSEDSAIYYCARDYNYDYFDYWGQGTTLTVSS
VL: DIQMTQSPASLSASVGETVTITCRASEKIYSYLAWYQQKQGKSPQLLVYNAKTLAEGVPSRFSVSGSGTQFSLRINSLQPEDFGTYYCQHHFGSPRTFGGGTKLEIK
notes: Commercial parent monoclonal antibody, a whole IgG; also called G28-8 mAb; parent G28-8 antibody
With B2, the binding result in the assay with human CD180 [2] was “binds”.
